Experimental data as given in patent US20220387557A1 (OXFORD UNIVERSITY INNOVATION, published 2022).

Key:
[1] = molecular target: T1, Fc tagged mouse TNFR2 (Sino Biological) (mouse, UniProt P25119 23-258); test: SPR (Biacore T200) single cycle kinetics, Fc-tagged receptor captured on Protein A chip, TNF protein as analyte at 1.67-15 nM
T1 construct: Bought reagent; also called mTNFR2; mTNF2; not shown: Fc tag of the bought protein
T1 sequence (looked up): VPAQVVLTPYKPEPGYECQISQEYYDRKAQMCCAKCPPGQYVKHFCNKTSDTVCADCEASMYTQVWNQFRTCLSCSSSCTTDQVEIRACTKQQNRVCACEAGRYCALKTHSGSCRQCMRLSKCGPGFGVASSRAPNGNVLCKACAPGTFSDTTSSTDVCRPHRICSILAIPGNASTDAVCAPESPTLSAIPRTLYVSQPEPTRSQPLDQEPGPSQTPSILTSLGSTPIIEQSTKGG
Description: (§1) Single cycle kinetic analysis was performed using a Biacore T200 (serial no. 1909913) running Biacore T200 Evaluation Software V2.0.1 (Uppsala, Sweden). All experiments were run at 25° C. with HBS-P+ running buffer (pH 7.4) (GE Healthcare, Little Chalfont, UK).
(§2) Due to the limit in the number of available flow cells for analysis (three Fc per analysis, Fc2, Fc3 and Fc4, with Fc1 always being used as blank reference for non-specific subtraction), receptor binding was assessed in two separate overlapping runs using either: hTNFR1 (Fc2), hTNFR2 (Fc3) and mTNFR1 (Fc4), or; hTNFR1 (Fc2), […] and mTNFR2 (Fc4). Receptors were diluted in running buffer to a concentration of ˜4 μg/mL and at the start of each cycle loaded onto Fc2, Fc3 and Fc4 of a Protein A chip (GE Healthcare, Little Chalfont, UK) at a flow rate of 10 μL/min to give an RU of 40-100. The surface was then allowed to stabilise. Single cycle kinetic data was obtained at a flow rate of 45 μL/min. […] The association phase for the three injections of increasing concentrations of TNF was monitored for 240 seconds and a single dissociation phase was measured for 2700 seconds following the last injection of TNF. Regeneration of the Protein A surface was conducted using 10 mM glycine-HCl pH 1.5. The signal from the reference channel Fc1 (no receptor) was subtracted from that of Fc2, Fc3 and Fc4 to correct for differences in non-specific binding to a reference surface.
Controls were used to ensure the integrity of the receptors during the Biacore run.

[2] = molecular target: T2, Fc tagged human TNFR2 (Sino Biological) (human, UniProt P20333 23-257); test: SPR, Biacore single cycle kinetics, stability study, before freezing (t=0)
T2 construct: Bought reagent; also called hTNFR2; hTNFR2-Fc; not shown: Fc tag of the bought protein
T2 sequence (looked up): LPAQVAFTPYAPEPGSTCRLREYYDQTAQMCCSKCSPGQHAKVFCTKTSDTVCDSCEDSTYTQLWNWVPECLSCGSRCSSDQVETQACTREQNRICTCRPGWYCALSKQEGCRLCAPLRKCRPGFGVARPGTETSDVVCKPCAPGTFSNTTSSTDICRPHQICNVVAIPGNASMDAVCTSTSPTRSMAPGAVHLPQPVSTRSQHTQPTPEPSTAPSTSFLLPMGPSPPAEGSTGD
Description: as §2
(§3) At day zero (prior to freezing) and following thawing on ice after 3 months and 1 year the following assays were performed: [0341] SDS-PAGE [0342] OD280 nm [0343] Single cycle Biacore for binding to hTNFR1, hTNFR2 and mTNFR1

[3] = molecular target: T3, Fc tagged mouse TNFR1 (Sino Biological) (mouse, UniProt P25118 22-212, limits assumed); test: as above
T3 construct: Bought reagent; also called mTNFR1; mTNFR1-Fc; not shown: Fc tag of the bought protein
T3 sequence (looked up): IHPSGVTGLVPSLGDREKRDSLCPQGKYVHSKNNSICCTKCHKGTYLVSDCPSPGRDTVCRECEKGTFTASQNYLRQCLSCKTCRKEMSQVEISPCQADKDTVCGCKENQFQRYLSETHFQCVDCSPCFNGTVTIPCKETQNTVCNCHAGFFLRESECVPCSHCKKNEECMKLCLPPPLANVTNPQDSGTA
Description: as §2, §3

[4] = molecular target: T2, Fc tagged human TNFR2 (Sino Biological); test: SPR, Biacore single cycle kinetics, stability study, after 1 year at -20° C.
Description: as §2, §3

[5] = molecular target: T3, Fc tagged mouse TNFR1 (Sino Biological); test: as above
Description: as §2, §3

[6] = molecular target: T4, Fc tagged human TNFR1 (Sino Biological) (human, UniProt P19438 22-211, limits assumed); test: as above
T4 construct: Bought reagent; also called hTNFR1; hTNFR1-Fc; not shown: Fc tag of the bought protein
T4 sequence (looked up): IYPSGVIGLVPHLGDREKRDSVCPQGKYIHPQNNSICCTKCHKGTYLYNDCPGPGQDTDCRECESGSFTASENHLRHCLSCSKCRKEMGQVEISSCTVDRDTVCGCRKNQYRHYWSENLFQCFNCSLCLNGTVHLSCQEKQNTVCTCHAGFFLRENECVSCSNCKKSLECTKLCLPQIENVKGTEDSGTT
Description: as §2, §3

[7] = molecular target: T2, Fc tagged human TNFR2 (Sino Biological); test: SPR, Biacore single cycle kinetics, stability study, after 1 year at -80° C.
Description: as §2, §3

[8] = molecular target: T3, Fc tagged mouse TNFR1 (Sino Biological); test: as above
Description: as §2, §3

[9] = molecular target: T4, Fc tagged human TNFR1 (Sino Biological); test: as above
Description: as §2, §3

[10] = molecular target: T2, Fc tagged human TNFR2 (Sino Biological); test: SPR, Biacore T200 single cycle kinetics, receptor-Fc captured on Protein A chip, TNF 1.67-15 nM
Description: as §1, §2

[11] = molecular target: T3, Fc tagged mouse TNFR1 (Sino Biological); test: as above
Description: as §1, §2

[12] = molecular target: T4, Fc tagged human TNFR1 (Sino Biological); test: as above
Description: as §1, §2

B1: TNF mutein B2 (ligand)
chain: VRSSSRTPSDKPVAHVVANPQAEGQLQWLNRRANALLANGVELRDNQLVVPSEGLYLIYSQVLFKGQGCPSTHVLLTHTISRITASYSGKVNLLSAIKSPCQRETPEGAEAKPWYEPIYLGGVFQLEKGDRLSAEINRPDYLDFAESGQVYFGIIAL
notes: Human TNF mutein, TASYSG at positions 84-89; not shown: C-terminal FLAG tag and His6 tag from vector pANT65
[1]
  binding result: no binding (tested: 15 nM)
[2]
  Kd: 0.198 nM
[3]
  Kd: 0.0624 nM
[4]
  Kd: 0.21 nM
[5]
  Kd: 0.0851 nM
[6]
  Kd: 0.039 nM
[7]
  Kd: 0.349 nM
[8]
  Kd: 0.0864 nM
[9]
  Kd: 0.0407 nM
[10]
  Kd: 0.315 nM
[11]
  Kd: 0.0256 nM
[12]
  Kd: 0.0164 nM
